Ends that are not written are not given here.
What was measured:
[1] = target: insulin-like growth factor 2 receptor (IGF2R) on rat hepatic stellate cells HSC-T6 (rat); assay: flow cytometry, uptake of 5-FAM labelled peptide by HSC-T6 cells, 1 h
[2] = target: insulin-like growth factor 2 receptor (IGF2R) on rat hepatic stellate cells HSC-T6 (rat); assay: flow cytometry, 5-FAM labelled peptide titrated on HSC-T6 cells, 1 h at 37 C; apparent Kd

VHWDFRQWWQPS (also: 5-FAM label, position not given here) [Peptide-431]
cellular uptake [1]: 12%
Kd [2]: 12.3 µM
